Measured values from the supplement of paper PMC9170038.

Test system: K4 kissing-loop RNA reporter
Assay: apparent KD of K4 kissing-loop reporter; higher = weaker reporter binding
Conditions: Eterna round: R107
Experimental: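 RNA-MaP round R107: designed RNA switches with theophylline, tryptophan, arginine or FMN aptamers are transcribed on-chip within common flanks. They are titrated with a labelled K4 kissing-loop RNA reporter in RNA-MaP buffer (100 mM Tris pH 7.5, 80 mM KCl, 4 mM MgCl2), without ligand or with the indicated ligand. Median apparent KD per design.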

[1] = input ligand: theophylline 20 uM
[2] = input ligand: tryptophan 2.4 mM
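Also: bound reporter read as fluorescence of individual clusters on recovered sequencing chips by microscopy, with normalized cluster intensities fitted with a binding model.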

Sequence	apparent KD of K4 kissing-loop reporter (input ligand: FMN 200 uM) [nM]	apparent KD of K4 kissing-loop reporter (input ligand: arginine 13.2 mM) [nM]	apparent KD of K4 kissing-loop reporter (input ligand: none) [nM]	apparent KD of K4 kissing-loop reporter [1] [nM]	apparent KD of K4 kissing-loop reporter [2] [nM]
GGAUGGUAGGCGGCCGCCACUAAAACUGAACAAAUAUAAACCAGUGAUGUUGGUAUGAUGAAGUAUAGGACCGGGCCUAGAUAGA [Exclusion - Tryptophan B (Freestyle 1)]	124	134	143	160	122
GGCAGUGAUGUUGCCAGUGGCAGAUGCGAAGGAGCGCGGUGAGACGCAGGUAGGUCGCGCAUUGAAAUUGCUGUCACUAGAAUGC [whbob_Ex_Arginine_A_2t127]	258	285	283	305	208
GGCAUGCGUAGAGUGAUGUUCUAAGAUGAUACCAGUGCGGAAACGCACCCUUGGCAGCAUCUGACGAGCAUGCCGGCGAAAGCCU	792	586	814	607	771
GGGAGGAAAAUUUUCCUCAAAAGUUGGCUACAGGAUAUCGUGGGAAUGAGAAGGGUAACCGAGACGCCCAGUGAUGUUGGGUGCC [Antegete]	415	247	318	251	245
GGGCAAGUGAGUGAUGUUCGAUGAUGCUUAAAGGAUAUGUAGGAAUACAGAAGGUUAUAUUCCCUGACAUUAGAUCUUUACAGGG [theeternabot_exclusion_KL_FMN_A_44]	117	134	105	151	90.4
GGGCGUAUUCACCGAGUGAUGUUCGGAAGGAAGGAUAUUCAAGAUUGAAGAAGGUCCGGCCCAUCGGCCAUUAAACUUGAAAGGU [theeternabot_sameState_KL_FMN_A_48]	171	113	139	162	117
GGGUAUUACGGAGGAUAUGCACUGAGGAGGAGAAUAUAGUGAUGUUAUAUAAGAGGAAGGAGAAGAGUAGAAGGCCGUGGUGUUU [SSFMNB.J]	171	126	170	195	109
GGUAGCAUCGCGGCCGCCACUAAUCGCUAAGGCUCAGGACCCUAAUAGCGAGUGAUGUUCGCCCUUAGGACCGGGCGAUGCUACC	114	93.3	101	87.5	119
GGUAGCAUGGCGGCCGCCACUAUCAGGAGUGAUGUUCCAACGCAGAGCUUCAGCUAGUGUGUAAAUAGGACCGGGCCAUGCUACC	414	69.8	512	177	866
GGUAGCAUGGCGGCCGCCACUUGCACUCGUCUUGCAUAUUGGCCUAUGAUAGUAGUGAUGUUACUAAGGACCGGGCCAUGCUACC	266	173	194	178	255
GGUAUCCAGUACCAUUGCGUUAAAACAGAAGGAGCGAGAAUAGACUCAGGUAGGUCGCUGUUUAUAGUCGAGUGAUGUUCGAAUC [Same State Arginine A GF 14]	202	281	265	315	188
GGUGCUGUCUGUGCCGCCCUCCUCGUCCCUCGAGGACCGGUACGGCCGCCACUCGAGUGAUGUUCGGGUAGCCCUCCCUGCCAGC [BDazzled - #21 Exc. Tryptophan A]	493	402	548	438	492
GGUGUUGUUUGUGCUGUUUUCCUCGUUUCUCGAGGACCGGUACGGCCGCCACUCGAGUGAUGUUUGGGUAGCGAUCUUUGUUAGU [Bdazzled - #5 Exc. Tryptophan A]	223	142	177	177	281
GGUGUUGUUUGUGCUGUUUUCUUCGUUUCUCGAGGACCGGUACGGCCGCCACUCGAGUGAUGUUUGGGUAGCGAUGUUUGUUAGU [Bdazzled - #3 - Exc. Tryptophan A]	473	287	373	360	470
GGUUCCUCAGUGAUGUUGAGGUGACCUCGGCAGGAUAUAGGCAUUACUAGAAGGGCCAAAUGAACCCUGUCCAGCGGCACAGGGA [Arleorbile]	147	213	331	298	252
GGUUGAAGCACCCGGAGUGAUGUUCCGGAUACCAGCAAACCAACUUGCCCUUGGCAGCCGUAUAGCGUCCGGUGGGCCGAGCAUA [Beisadi]	101	90.3	97	99.3	90
GGUUUUAACCGCAGUGAUGUUGCGUUGAAACGAGGACCGGUACGGCCGCCACUCGAAAAGAAGCGGCCAAAUUAAAAUCGUAAAG [Exclusion Tryptophan A GF 23]	129	162	144	164	114
GUAAUCUUGCUCGAGUGAUGUUCGAGCGAAGGAGCGCGAGAAAUCGCAGGUAGGUCGCGCUCGAAAUAUGAGCGAACAAUUAUUA [Arg A Ex t2b]	222	197	220	219	230
